± gives the uncertainty stated by the source.

This note sets out measurements from the supplement of paper PMC7877785.

The nature of this data set: self-splicing fitness, log relative to wild type (ln ratio); higher = more splicing; Tetrahymena group I intron in knt gene, E. coli kanamycin selection, DiMSum; sequences stand for … in CUCUCU…GGAGGGAAAAGUUAUCAGGCAUGCACCUGGUAGCUAGUCUUUAAACCAAUAGAUUGCAUCGGUUUAAAAGGCAAGACCGUCAAAUUGCGGGAAAGGGGUCAACAGCCGUUCAGUACCAAGUCUCAGGGGAAACUUUGAGAUGGCCUUGCAAAGGGUAUGGUAAUAAGCUGACGGACAUGGUCCUAACCACGCAGCCAAGUCCUAAGUCAACAGAUCUUCUGUUGAUAUGGAUGCAGUUCACAGACUAAAUGUCGGUCGGGGAAGAUGUAUUCUUCUCAUAAGAUAUAGUCGGACCUCUCCUUAAUGGGAGCUAGCGGAUGAAGUGAUGCAACACUGGAGCCGCUGGGAACUAAUUUGUAUGCGAAAGUAUAUUGAUUAGUUUUGGAGUACUCGUGGUCG
In short, it runs like this: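 The eight P1ex-region nucleotides of an intron in the knt kanamycin-resistance gene on pET-22b(+) were all randomised and the library put into E. coli BL21(DE3). Six replicate transformations were grown overnight at 37°C or 30°C on LB agar with or without 25 μg/mL kanamycin, together with 100 μg/mL carbenicillin, 50 μM IPTG and 0.2% rhamnose. Colonies were pooled and amplicon-sequenced on an Illumina HiSeq 2500. Fitness from DiMSum is the error-weighted combination of wild-type-normalised replicate fold changes, kanamycin over none.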

UUGCAGCAAUAUUACGAACA: the “self-splicing fitness (ln)” value runs as follows: (30 °C) -0.626 ± 0.17; (37 °C) -1.24 ± 0.15. For GUUAAGCAAUAUUACGCCAU the same measures were -2.03 ± 0.27 and -1.26 ± 0.3. Taken in the same sequence, the figures for UCGGAGCAAUAUUACGGGGG were -2.73 ± 0.22 and -2.32 ± 0.3.

Consider AGGUAGCAAUAUUACGCCUU, for which the “self-splicing fitness (ln)” value is -4.13 ± 0.038 (30 °C) and -2.87 ± 0.048 (37 °C). With UCUCAGCAAUAUUACGCUAG, the “self-splicing fitness (ln)” value by setting is: (30 °C) -2.76 ± 0.25; (37 °C) -1.8 ± 0.25. Taken in the same sequence, the figures for GACCAGCAAUAUUACGGUAA were 0.0402 ± 0.06 and -0.0565 ± 0.071. For CAAGAGCAAUAUUACGUCCG the same measures were -1.66 ± 0.087 and -0.696 ± 0.13. Taken in the same sequence, the figures for UACAAGCAAUAUUACGCAGG were -2.78 ± 0.11 and -1.7 ± 0.095. Turning to GGCCAGCAAUAUUACGGGCG, the “self-splicing fitness (ln)” value (30 °C) is -2.13 ± 0.2 and the “self-splicing fitness (ln)” value (37 °C) is -2.02 ± 0.26. For CGCAAGCAAUAUUACGUGUA the same measures were -2.88 ± 0.13 and -0.494 ± 0.1.

AGACAGCAAUAUUACGCACG: the “self-splicing fitness (ln)” value reads like this: (30 °C) -2.11 ± 0.12; (37 °C) -0.922 ± 0.13.

For the sequence AGAGAGCAAUAUUACGGCGC, the “self-splicing fitness (ln)” value (37 °C) was -2.13 ± 0.35. As for AGUAAGCAAUAUUACGACAC, the “self-splicing fitness (ln)” value was -1.58 ± 0.19 (30 °C) and -0.792 ± 0.17 (37 °C). As to GUUUAGCAAUAUUACGCGGC, under “30 °C”, the “self-splicing fitness (ln)” value is -1.26 ± 0.49. With UUAUAGCAAUAUUACGUUGU, the “self-splicing fitness (ln)” value (30 °C) is -3.44 ± 0.27 and the “self-splicing fitness (ln)” value (37 °C) was -2.38 ± 0.23.

Consider UCGAAGCAAUAUUACGUGGG, for which the “self-splicing fitness (ln)” value runs as follows: (30 °C) -2.34 ± 0.14; (37 °C) -2.18 ± 0.18.

With AGUCAGCAAUAUUACGACCG, the “self-splicing fitness (ln)” value was 0.0414 ± 0.095 (30 °C) and 0.085 ± 0.13 (37 °C). Taken in the same sequence, the figures for GGCGAGCAAUAUUACGGUUU were -1.06 ± 0.076 and 0.0414 ± 0.11. With UGCCAGCAAUAUUACGUCGC, the “self-splicing fitness (ln)” value (30 °C) was -3.68 ± 0.44 and the “self-splicing fitness (ln)” value (37 °C) is -2.95 ± 0.35. CGAAAGCAAUAUUACGUUAC: the “self-splicing fitness (ln)” value (30 °C) is -3.15 ± 0.18 and the “self-splicing fitness (ln)” value (37 °C) is -3.01 ± 0.26.

As for ACCUAGCAAUAUUACGUCCG, the “self-splicing fitness (ln)” value (30 °C) is -2.21 ± 0.14 and the “self-splicing fitness (ln)” value (37 °C) was -0.377 ± 0.19. With CAUCAGCAAUAUUACGAAAA, the “self-splicing fitness (ln)” value (37 °C) is -2.89 ± 0.28. As to CCGGAGCAAUAUUACGACAU, the “self-splicing fitness (ln)” value (30 °C) was -3.816 ± 0.032 and the “self-splicing fitness (ln)” value (37 °C) was -3.02 ± 0.045. Taken in the same sequence, the figures for CGUAAGCAAUAUUACGUUUU were -4.1 ± 0.18 and -3.05 ± 0.19. Consider CCAGAGCAAUAUUACGGAGC, for which the “self-splicing fitness (ln)” value (30 °C) was -2.89 ± 0.35. Regarding CUAGAGCAAUAUUACGGAUA, the “self-splicing fitness (ln)” value (37 °C) is -1.44 ± 0.4. For the sequence CUGCAGCAAUAUUACGACAC, the “self-splicing fitness (ln)” value runs as follows: (30 °C) -3.35 ± 0.23; (37 °C) -3.61 ± 0.33.

As to AAUAAGCAAUAUUACGAUUA, the “self-splicing fitness (ln)” value (30 °C) was -0.789 ± 0.12 and the “self-splicing fitness (ln)” value (37 °C) worked out at 0.438 ± 0.14.

Turning to GGAAAGCAAUAUUACGUCAG, the “self-splicing fitness (ln)” value reads like this: (30 °C) -3.08 ± 0.38; (37 °C) -2.25 ± 0.27. Taken in the same sequence, the figures for AAAUAGCAAUAUUACGCACG were -1.59 ± 0.13 and -0.271 ± 0.12. For GGUAAGCAAUAUUACGAGGU the same measures were -3.61 ± 0.37 and -2.22 ± 0.28. For CUGCAGCAAUAUUACGAUAG the same measures were -1.16 ± 0.11 and -0.167 ± 0.12. As for UUAGAGCAAUAUUACGAAGG, the “self-splicing fitness (ln)” value by setting is: (30 °C) -1.72 ± 0.14; (37 °C) -1.9 ± 0.23. For AACAAGCAAUAUUACGGACU the same measures were -0.217 ± 0.063 and 0.775 ± 0.099.
